Experimental data published in the supplement of paper PMC9112550, “Optimization of the antimicrobial peptide Bac7 by deep mutational scanning” (BMC Biology, 2022).

Test system: Escherichia coli TOP10
Assay: shrunken log2 fold change of peptide-encoding DNA abundance (4.5 h post-induction vs induction); higher = less antimicrobial activity (less host growth inhibition)
Conditions: time post-induction: 4.5 h; library: site-saturation at positions 5, 18, 19, 20
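Further: peptides expressed intracellularly from a pBAD plasmid library in pooled LB shake-flask culture, induced with 0.3% L-arabinose, DNA abundance read by NGS, three biological replicates, DESeq2 with apeglm shrinkage.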

RRIRSRPPRLPRPRPRPEICPRP
shrunken log2 fold change: 0.0531

RRIRSRPPRLPRPRPRPEIMPRP
shrunken log2 fold change: 0.0625

RRIRSRPPRLPRPRPRPELGPRP
shrunken log2 fold change: 0.547

RRIRSRPPRLPRPRPRPENCPRP
shrunken log2 fold change: 0.00362

RRIRSRPPRLPRPRPRPENPPRP
shrunken log2 fold change: -0.143

RRIRSRPPRLPRPRPRPENWPRP
shrunken log2 fold change: -0.0386

RRIRSRPPRLPRPRPRPEPMPRP
shrunken log2 fold change: 0.54

RRIRSRPPRLPRPRPRPEPNPRP
shrunken log2 fold change: 0.374

RRIRSRPPRLPRPRPRPEQIPRP
shrunken log2 fold change: 0.157

RRIRSRPPRLPRPRPRPERPPRP
shrunken log2 fold change: 0.384

RRIRSRPPRLPRPRPRPERRPRP
shrunken log2 fold change: 0.23

RRIRSRPPRLPRPRPRPERYPRP
shrunken log2 fold change: -0.037

RRIRSRPPRLPRPRPRPESDPRP
shrunken log2 fold change: 0.306

RRIRSRPPRLPRPRPRPESLPRP
shrunken log2 fold change: 0.0154

RRIRSRPPRLPRPRPRPESWPRP
shrunken log2 fold change: 0.762

RRIRSRPPRLPRPRPRPETAPRP
shrunken log2 fold change: 0.667

RRIRSRPPRLPRPRPRPEWAPRP
shrunken log2 fold change: 0.273

RRIRSRPPRLPRPRPRPEWKPRP
shrunken log2 fold change: 0.14

RRIRSRPPRLPRPRPRPEYNPRP
shrunken log2 fold change: -0.229

RRIRSRPPRLPRPRPRPFADPRP
shrunken log2 fold change: -0.0303

RRIRSRPPRLPRPRPRPFCCPRP
shrunken log2 fold change: -0.14

RRIRSRPPRLPRPRPRPFCKPRP
shrunken log2 fold change: -0.449

RRIRSRPPRLPRPRPRPFDEPRP
shrunken log2 fold change: 0.0719

RRIRSRPPRLPRPRPRPFDFPRP
shrunken log2 fold change: -0.241

RRIRSRPPRLPRPRPRPFEMPRP
shrunken log2 fold change: -0.353

RRIRSRPPRLPRPRPRPFHWPRP
shrunken log2 fold change: -0.108

RRIRSRPPRLPRPRPRPFIKPRP
shrunken log2 fold change: -0.275

RRIRSRPPRLPRPRPRPFITPRP
shrunken log2 fold change: -0.798

RRIRSRPPRLPRPRPRPFLKPRP
shrunken log2 fold change: -0.632

RRIRSRPPRLPRPRPRPFMEPRP
shrunken log2 fold change: -0.54

RRIRSRPPRLPRPRPRPFMNPRP
shrunken log2 fold change: -0.147

RRIRSRPPRLPRPRPRPFNIPRP
shrunken log2 fold change: -0.109

RRIRSRPPRLPRPRPRPFNMPRP
shrunken log2 fold change: -0.907

RRIRSRPPRLPRPRPRPFQQPRP
shrunken log2 fold change: 0.000179

RRIRSRPPRLPRPRPRPFREPRP
shrunken log2 fold change: 0.0536

RRIRSRPPRLPRPRPRPFRGPRP
shrunken log2 fold change: -0.242

RRIRSRPPRLPRPRPRPFRNPRP
shrunken log2 fold change: -0.225

RRIRSRPPRLPRPRPRPFRWPRP
shrunken log2 fold change: 0.119

RRIRSRPPRLPRPRPRPFSFPRP
shrunken log2 fold change: -0.633

RRIRSRPPRLPRPRPRPFWIPRP
shrunken log2 fold change: -0.299

RRIRSRPPRLPRPRPRPFYSPRP
shrunken log2 fold change: -0.131

RRIRSRPPRLPRPRPRPGAYPRP
shrunken log2 fold change: -0.0377

RRIRSRPPRLPRPRPRPGCHPRP
shrunken log2 fold change: 0.328

RRIRSRPPRLPRPRPRPGCIPRP
shrunken log2 fold change: 0.0242

RRIRSRPPRLPRPRPRPGEEPRP
shrunken log2 fold change: 0.499

RRIRSRPPRLPRPRPRPGFVPRP
shrunken log2 fold change: 0.287

RRIRSRPPRLPRPRPRPGGDPRP
shrunken log2 fold change: 0.514

RRIRSRPPRLPRPRPRPGHRPRP
shrunken log2 fold change: -0.326

RRIRSRPPRLPRPRPRPGIRPRP
shrunken log2 fold change: 0.694

RRIRSRPPRLPRPRPRPGIVPRP
shrunken log2 fold change: 0.119

RRIRSRPPRLPRPRPRPGKPPRP
shrunken log2 fold change: 0.0657

RRIRSRPPRLPRPRPRPGKRPRP
shrunken log2 fold change: -0.0142

RRIRSRPPRLPRPRPRPGLQPRP
shrunken log2 fold change: 0.652

RRIRSRPPRLPRPRPRPGLSPRP
shrunken log2 fold change: 0.245

RRIRSRPPRLPRPRPRPGMAPRP
shrunken log2 fold change: 0.0998

RRIRSRPPRLPRPRPRPGMCPRP
shrunken log2 fold change: 0.0439

RRIRSRPPRLPRPRPRPGMGPRP
shrunken log2 fold change: 0.0599

RRIRSRPPRLPRPRPRPGMSPRP
shrunken log2 fold change: -0.0403

RRIRSRPPRLPRPRPRPGPHPRP
shrunken log2 fold change: -0.109

RRIRSRPPRLPRPRPRPGPIPRP
shrunken log2 fold change: 0.298

RRIRSRPPRLPRPRPRPGPPPRP
shrunken log2 fold change: 0.46

RRIRSRPPRLPRPRPRPGQHPRP
shrunken log2 fold change: 0.178

RRIRSRPPRLPRPRPRPGQIPRP
shrunken log2 fold change: -0.227

RRIRSRPPRLPRPRPRPGTEPRP
shrunken log2 fold change: 0.0221

RRIRSRPPRLPRPRPRPGTWPRP
shrunken log2 fold change: 0.358

RRIRSRPPRLPRPRPRPGVHPRP
shrunken log2 fold change: -0.035

RRIRSRPPRLPRPRPRPGVTPRP
shrunken log2 fold change: 0.0674

RRIRSRPPRLPRPRPRPHAKPRP
shrunken log2 fold change: -0.288

RRIRSRPPRLPRPRPRPHCEPRP
shrunken log2 fold change: -0.0301

RRIRSRPPRLPRPRPRPHCSPRP
shrunken log2 fold change: -0.686

RRIRSRPPRLPRPRPRPHDDPRP
shrunken log2 fold change: -0.114

RRIRSRPPRLPRPRPRPHEEPRP
shrunken log2 fold change: 0.0919

RRIRSRPPRLPRPRPRPHFCPRP
shrunken log2 fold change: -0.29

RRIRSRPPRLPRPRPRPHFGPRP
shrunken log2 fold change: -0.195

RRIRSRPPRLPRPRPRPHFMPRP
shrunken log2 fold change: -0.48

RRIRSRPPRLPRPRPRPHFPPRP
shrunken log2 fold change: -0.397

RRIRSRPPRLPRPRPRPHHDPRP
shrunken log2 fold change: -0.759

RRIRSRPPRLPRPRPRPHHSPRP
shrunken log2 fold change: -0.464

RRIRSRPPRLPRPRPRPHKNPRP
shrunken log2 fold change: -0.283

RRIRSRPPRLPRPRPRPHKPPRP
shrunken log2 fold change: -0.507

RRIRSRPPRLPRPRPRPHLKPRP
shrunken log2 fold change: -0.137

RRIRSRPPRLPRPRPRPHLYPRP
shrunken log2 fold change: -0.02

RRIRSRPPRLPRPRPRPHMQPRP
shrunken log2 fold change: -0.264

RRIRSRPPRLPRPRPRPHNGPRP
shrunken log2 fold change: 0.00483

RRIRSRPPRLPRPRPRPHNRPRP
shrunken log2 fold change: 0.0124

RRIRSRPPRLPRPRPRPHPQPRP
shrunken log2 fold change: 0.0419

RRIRSRPPRLPRPRPRPHQQPRP
shrunken log2 fold change: -0.0386

RRIRSRPPRLPRPRPRPHQYPRP
shrunken log2 fold change: -0.549

RRIRSRPPRLPRPRPRPHRFPRP
shrunken log2 fold change: -0.301

RRIRSRPPRLPRPRPRPHRGPRP
shrunken log2 fold change: -0.128

RRIRSRPPRLPRPRPRPHRWPRP
shrunken log2 fold change: 0.0724

RRIRSRPPRLPRPRPRPHSDPRP
shrunken log2 fold change: -0.0834

RRIRSRPPRLPRPRPRPHWVPRP
shrunken log2 fold change: -0.166

RRIRSRPPRLPRPRPRPHWYPRP
shrunken log2 fold change: -0.648

RRIRSRPPRLPRPRPRPIAYPRP
shrunken log2 fold change: -0.0673

RRIRSRPPRLPRPRPRPICAPRP
shrunken log2 fold change: 0.47

RRIRSRPPRLPRPRPRPIHSPRP
shrunken log2 fold change: -0.567

RRIRSRPPRLPRPRPRPILLPRP
shrunken log2 fold change: -0.334

RRIRSRPPRLPRPRPRPIPEPRP
shrunken log2 fold change: 0.208

RRIRSRPPRLPRPRPRPIPSPRP
shrunken log2 fold change: -0.00523

RRIRSRPPRLPRPRPRPIQYPRP
shrunken log2 fold change: -0.383

RRIRSRPPRLPRPRPRPIRPPRP
shrunken log2 fold change: -0.157

RRIRSRPPRLPRPRPRPISKPRP
shrunken log2 fold change: -0.211

RRIRSRPPRLPRPRPRPIVDPRP
shrunken log2 fold change: 0.115

RRIRSRPPRLPRPRPRPIYDPRP
shrunken log2 fold change: 0.0384

RRIRSRPPRLPRPRPRPIYNPRP
shrunken log2 fold change: -0.785

RRIRSRPPRLPRPRPRPKDTPRP
shrunken log2 fold change: -0.145

RRIRSRPPRLPRPRPRPKEPPRP
shrunken log2 fold change: -0.0411

RRIRSRPPRLPRPRPRPKGWPRP
shrunken log2 fold change: 1.19
